In patent US7507799:

Key:
[1] = biological target: TrkA on 293 cells; assay: whole-cell competition against 1 nM 125I-NGF on 293 cells expressing only trk A
[2] = biological target: trk A (autophosphorylation assay of Example 5); assay: cell-based or functional assay
[3] = biological target: trk A on trk A-overexpressing PC12 cells; assay: cell-based or functional assay
[4] = biological target: p75NTR on A875 cells (UniProt P08138); assay: whole-cell competition against 1 nM 125I-NGF on cells expressing only p75 (A875 cells)
Chain of p75NTR on A875 cells (P08138 29-427): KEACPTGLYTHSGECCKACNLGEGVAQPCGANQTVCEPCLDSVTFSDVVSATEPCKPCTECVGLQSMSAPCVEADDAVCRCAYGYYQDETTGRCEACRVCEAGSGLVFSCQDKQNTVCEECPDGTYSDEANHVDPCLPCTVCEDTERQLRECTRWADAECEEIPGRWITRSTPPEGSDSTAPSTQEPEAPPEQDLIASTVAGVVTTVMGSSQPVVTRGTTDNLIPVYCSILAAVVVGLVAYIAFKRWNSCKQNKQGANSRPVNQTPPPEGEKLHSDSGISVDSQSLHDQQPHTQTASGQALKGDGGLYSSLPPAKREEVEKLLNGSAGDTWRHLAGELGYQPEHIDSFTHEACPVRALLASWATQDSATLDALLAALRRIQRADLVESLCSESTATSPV

[5] = biological target: p75 on vascular smooth muscle cell line (p75Ts-Tag-SMC); assay: cell-based or functional assay
[6] = test system: His-tagged cleavage resistant pro-NGF (point mutant, K-R cleavage site at 120,121 mutated to A-A)
[7] = test system: T1, rat BDNF secreted by adenovirus-infected 293T or endothelial cells (proforms of 30 kDa and 28 kDa)
T1 sequence: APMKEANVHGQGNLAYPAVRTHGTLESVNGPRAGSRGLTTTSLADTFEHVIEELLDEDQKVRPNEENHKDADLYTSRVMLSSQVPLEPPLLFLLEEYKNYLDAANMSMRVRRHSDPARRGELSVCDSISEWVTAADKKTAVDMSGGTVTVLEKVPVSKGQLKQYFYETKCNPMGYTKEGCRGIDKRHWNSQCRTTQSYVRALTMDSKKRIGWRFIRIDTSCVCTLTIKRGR

Chain of commercial mature NGF (Enzo Products for Science, Farmingdale, N.Y.) (ligand) (P01139 122-241): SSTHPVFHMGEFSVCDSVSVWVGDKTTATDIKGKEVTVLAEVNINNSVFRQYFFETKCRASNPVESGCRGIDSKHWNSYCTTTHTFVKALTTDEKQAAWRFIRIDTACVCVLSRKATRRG
Chain of plasmin (P00747 20-580): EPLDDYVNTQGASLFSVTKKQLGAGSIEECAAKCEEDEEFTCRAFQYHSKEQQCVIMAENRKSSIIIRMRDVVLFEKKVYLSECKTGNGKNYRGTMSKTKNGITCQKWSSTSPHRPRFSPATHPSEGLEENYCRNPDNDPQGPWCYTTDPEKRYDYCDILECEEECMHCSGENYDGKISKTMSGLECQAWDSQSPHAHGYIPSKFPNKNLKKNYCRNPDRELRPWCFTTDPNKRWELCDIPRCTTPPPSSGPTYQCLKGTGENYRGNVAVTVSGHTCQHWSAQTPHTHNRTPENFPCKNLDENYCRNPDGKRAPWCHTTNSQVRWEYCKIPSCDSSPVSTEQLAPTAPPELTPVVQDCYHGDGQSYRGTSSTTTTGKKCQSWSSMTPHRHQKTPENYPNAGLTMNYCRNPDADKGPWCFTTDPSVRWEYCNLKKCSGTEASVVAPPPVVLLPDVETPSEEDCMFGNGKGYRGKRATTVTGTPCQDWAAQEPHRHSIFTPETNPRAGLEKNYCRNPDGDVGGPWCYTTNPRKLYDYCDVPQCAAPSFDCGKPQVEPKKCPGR
Chain of plasmin (P00747 581-810): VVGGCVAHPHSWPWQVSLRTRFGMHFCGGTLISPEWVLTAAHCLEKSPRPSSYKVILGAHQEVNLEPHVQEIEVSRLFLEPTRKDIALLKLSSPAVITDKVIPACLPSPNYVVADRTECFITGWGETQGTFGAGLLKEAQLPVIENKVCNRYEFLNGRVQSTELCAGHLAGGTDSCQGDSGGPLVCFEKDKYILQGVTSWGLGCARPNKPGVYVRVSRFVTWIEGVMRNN
Chain of commercial mature NGF (Enzo Products for Science, Farmingdale, N.Y.) (ligand; other documents disagree on this pair) (P01139 122-241): as the sequence (P01139 122-241) above
Chain of TrkA on 293 cells (P04629 33-796): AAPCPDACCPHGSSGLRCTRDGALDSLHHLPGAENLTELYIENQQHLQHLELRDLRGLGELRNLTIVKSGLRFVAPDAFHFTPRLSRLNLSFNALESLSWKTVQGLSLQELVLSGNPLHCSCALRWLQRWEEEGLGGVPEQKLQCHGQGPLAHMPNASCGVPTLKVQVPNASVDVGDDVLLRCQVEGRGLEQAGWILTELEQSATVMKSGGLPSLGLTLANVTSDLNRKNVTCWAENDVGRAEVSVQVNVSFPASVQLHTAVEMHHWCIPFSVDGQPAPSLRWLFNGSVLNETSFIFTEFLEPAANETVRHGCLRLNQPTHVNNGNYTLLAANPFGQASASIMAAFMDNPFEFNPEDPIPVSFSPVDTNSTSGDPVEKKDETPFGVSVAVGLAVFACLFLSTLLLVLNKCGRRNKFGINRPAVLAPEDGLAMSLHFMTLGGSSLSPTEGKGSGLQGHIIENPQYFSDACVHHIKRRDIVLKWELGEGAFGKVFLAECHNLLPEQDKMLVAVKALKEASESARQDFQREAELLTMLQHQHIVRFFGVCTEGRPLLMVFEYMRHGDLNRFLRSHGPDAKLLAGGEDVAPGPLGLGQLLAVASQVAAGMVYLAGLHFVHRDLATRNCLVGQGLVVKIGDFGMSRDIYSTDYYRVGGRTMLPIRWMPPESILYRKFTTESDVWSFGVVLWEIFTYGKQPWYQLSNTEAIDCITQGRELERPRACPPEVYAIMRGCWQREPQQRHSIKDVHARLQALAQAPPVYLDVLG

“commercial mature NGF (Enzo Products for Science, Farmingdale, N.Y.) (ligand; other documents disagree on this pair)” was tested, and the IC50 [1] was 1.2 nM.

Work on “His-tagged native NGF, completely processed to the mature form of 13.5 kDa (from UniProt P01139 122-241) (ligand)” yielded a trk A autophosphorylation [2] of 0.2 nM and a PC12 cell neuritogenesis [3] of 0.1 nM.

“commercial mature NGF (Enzo Products for Science, Farmingdale, N.Y.) (ligand)” gave an IC50 [4] of 1 nM, a TUNEL positive cells at 18 h (% TUNEL positive cells at 2 nM) [5] of 20 and a trk A autophosphorylation [2] of 0.2 nM. For the same substance, the PC12 cell neuritogenesis [3] was 0.1 nM.

For plasmin, the “proteolytic cleavage, Western blot” value [6] was “Pro-NGF was cleaved by plasmin to a 13 kD form” and the “proteolytic cleavage in endothelial media, Western blot” value [7] was “In endothelial media, only plasmin and MMP-7 appeared to cleave the large proform”.
